Laboratory results: patent US20220402981A1 (Dana-Farber, published 2022)

Legend:
[1] = target: T1, full-length human DCAF15 (human, UniProt Q66K64 1-600); experiment: cryo-EM at ~4.4 Å with E7820
T1 construct: mature; As in the cryo-EM and cross-linking complexes; also called full-length DCAF15

[2] = target: T2, DCAF15split (human, UniProt Q66K64 30-264; Q66K64 383-600); experiment: crystal structure with E7820
T2 construct: range 30-264;range 383-600; DCAF15 as two fragments in the crystal structures (PDB 6Q0R, 6Q0V, 6Q0W); also called Strep II Avi-DCAF15NTD (residues 30-264)-Strep II Avi-DCAF15CTD (residues 383-600); DCAF15-NTD; not shown: N-terminal Strep II Avi tag

binding result [1]: binds
binding result [2]: binds
B1: His6-RBM39RRM2 (other)
chain: GSAGPMRLYVGSLHFNITEDMLRGIFEPFGRIESIQLMMDSETGRSKGYGFITFSDSECAKKALEQLNGFELAGRPMKVGHVTERTDA
notes: RBM39RRM2 as in the crystals, cryo-EM and cross-linking complexes; not shown: N-terminal His6 tag
